Earlier results in PMC6109845.

Molecular target: HIF-1α 19-mer peptide (Homo sapiens) (UniProt Q16665)

von Hippel-Lindau E3 ubiquitin ligase (VHL), sequence (P40337 whole entry): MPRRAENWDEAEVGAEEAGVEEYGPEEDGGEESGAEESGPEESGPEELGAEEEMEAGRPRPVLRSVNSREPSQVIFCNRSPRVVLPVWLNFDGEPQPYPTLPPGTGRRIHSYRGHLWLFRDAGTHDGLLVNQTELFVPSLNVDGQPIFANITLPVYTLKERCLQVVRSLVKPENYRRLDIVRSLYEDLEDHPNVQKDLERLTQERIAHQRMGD

In the case of “von Hippel-Lindau E3 ubiquitin ligase (VHL) (from UniProt P40337)”, the Kd is given as 3 nM.
